Test results from PMC5930937.

Biological target: Cav3.1-GFP wild type (human) (UniProt O43497)
UniProt O43497, sequence (O43497 whole entry): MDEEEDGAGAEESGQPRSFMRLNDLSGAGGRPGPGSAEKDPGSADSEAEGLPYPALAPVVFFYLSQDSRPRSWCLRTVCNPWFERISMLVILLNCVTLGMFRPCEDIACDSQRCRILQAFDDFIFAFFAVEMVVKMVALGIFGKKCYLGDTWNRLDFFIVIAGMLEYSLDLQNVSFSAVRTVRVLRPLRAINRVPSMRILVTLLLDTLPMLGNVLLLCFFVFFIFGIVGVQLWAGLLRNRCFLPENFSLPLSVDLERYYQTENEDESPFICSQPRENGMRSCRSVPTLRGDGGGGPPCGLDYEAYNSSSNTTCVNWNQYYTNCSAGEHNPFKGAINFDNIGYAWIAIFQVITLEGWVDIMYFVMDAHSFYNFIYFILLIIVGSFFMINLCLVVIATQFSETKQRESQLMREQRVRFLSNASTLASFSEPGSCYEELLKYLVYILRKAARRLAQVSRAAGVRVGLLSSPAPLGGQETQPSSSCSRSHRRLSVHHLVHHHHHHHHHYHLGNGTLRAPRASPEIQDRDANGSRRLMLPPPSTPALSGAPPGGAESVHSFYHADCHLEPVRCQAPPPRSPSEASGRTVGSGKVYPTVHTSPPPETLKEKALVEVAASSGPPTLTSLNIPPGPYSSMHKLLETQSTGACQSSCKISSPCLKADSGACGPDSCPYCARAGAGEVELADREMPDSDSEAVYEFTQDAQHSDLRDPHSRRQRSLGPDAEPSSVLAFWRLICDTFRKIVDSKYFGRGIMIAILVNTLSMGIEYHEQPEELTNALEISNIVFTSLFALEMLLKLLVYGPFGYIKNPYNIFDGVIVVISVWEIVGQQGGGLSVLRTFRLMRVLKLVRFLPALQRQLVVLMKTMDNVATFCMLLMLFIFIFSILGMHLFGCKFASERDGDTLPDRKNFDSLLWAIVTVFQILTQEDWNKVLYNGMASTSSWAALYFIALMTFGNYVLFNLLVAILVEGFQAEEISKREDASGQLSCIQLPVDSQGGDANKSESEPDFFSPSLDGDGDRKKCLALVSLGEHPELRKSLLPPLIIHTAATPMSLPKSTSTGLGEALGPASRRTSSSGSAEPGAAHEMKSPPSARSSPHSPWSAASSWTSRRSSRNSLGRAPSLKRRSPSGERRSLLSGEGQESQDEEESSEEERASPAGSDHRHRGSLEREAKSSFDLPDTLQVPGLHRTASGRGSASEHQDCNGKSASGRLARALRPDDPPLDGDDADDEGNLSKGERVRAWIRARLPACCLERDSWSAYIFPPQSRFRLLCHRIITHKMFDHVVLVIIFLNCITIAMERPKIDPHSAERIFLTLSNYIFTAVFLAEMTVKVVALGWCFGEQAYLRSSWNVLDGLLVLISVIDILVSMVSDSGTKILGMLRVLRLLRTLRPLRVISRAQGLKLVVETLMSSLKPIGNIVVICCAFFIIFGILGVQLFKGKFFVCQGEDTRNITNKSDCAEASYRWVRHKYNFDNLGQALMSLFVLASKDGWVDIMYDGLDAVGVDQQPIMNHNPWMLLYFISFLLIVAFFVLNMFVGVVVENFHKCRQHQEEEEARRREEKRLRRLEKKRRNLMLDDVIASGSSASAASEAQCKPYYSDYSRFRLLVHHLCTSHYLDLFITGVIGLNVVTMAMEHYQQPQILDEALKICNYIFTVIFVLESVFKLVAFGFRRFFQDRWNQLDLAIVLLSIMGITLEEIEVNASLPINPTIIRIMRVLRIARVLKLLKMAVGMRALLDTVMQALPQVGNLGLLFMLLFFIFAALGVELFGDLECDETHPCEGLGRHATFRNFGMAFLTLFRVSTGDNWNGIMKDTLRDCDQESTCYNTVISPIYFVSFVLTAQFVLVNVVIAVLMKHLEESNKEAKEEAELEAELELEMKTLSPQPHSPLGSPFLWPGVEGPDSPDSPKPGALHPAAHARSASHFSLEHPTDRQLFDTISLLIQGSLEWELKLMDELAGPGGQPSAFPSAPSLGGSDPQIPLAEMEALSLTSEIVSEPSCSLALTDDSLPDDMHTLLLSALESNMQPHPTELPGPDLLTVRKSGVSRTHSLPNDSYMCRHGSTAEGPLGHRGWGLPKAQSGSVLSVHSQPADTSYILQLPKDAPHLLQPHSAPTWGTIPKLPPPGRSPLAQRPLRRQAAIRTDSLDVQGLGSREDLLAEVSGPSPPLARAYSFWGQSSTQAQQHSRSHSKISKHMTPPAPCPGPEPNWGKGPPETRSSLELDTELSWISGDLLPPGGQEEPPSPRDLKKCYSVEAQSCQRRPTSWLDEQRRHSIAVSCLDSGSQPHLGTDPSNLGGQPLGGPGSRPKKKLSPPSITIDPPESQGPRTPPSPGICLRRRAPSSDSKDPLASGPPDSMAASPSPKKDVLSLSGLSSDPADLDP

Work on “spectrin αII (SPTAN1), tsA-201 cells, Q13813 1-2472” yielded a cell surface expression of Cav3.1 (surface biotinylation, tsA-201 cells) in the presence of the cell permeant Tat-Cav3.1-CT disruptor peptide against a scrambled Tat peptide of 40%.
